{"source": "patent US20180161335", "key": {"[1]": {"molecular_target": "T1, RAB11A, N-terminal 6x His-tag, purified from E. coli, preloaded with BODIPY FL GDP, P62491", "T1 chain": "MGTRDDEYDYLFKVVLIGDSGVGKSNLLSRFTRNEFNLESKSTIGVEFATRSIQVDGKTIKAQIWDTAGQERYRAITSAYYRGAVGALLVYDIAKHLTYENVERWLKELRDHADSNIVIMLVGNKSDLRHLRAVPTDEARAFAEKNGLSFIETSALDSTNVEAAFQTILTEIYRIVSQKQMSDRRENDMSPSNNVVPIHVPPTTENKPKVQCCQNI"}, "[2]": {"molecular_target": "T2, RAB5A, N-terminal 6x His-tag, purified from E. coli, preloaded with BODIPY FL GDP, P20339", "T2 chain": "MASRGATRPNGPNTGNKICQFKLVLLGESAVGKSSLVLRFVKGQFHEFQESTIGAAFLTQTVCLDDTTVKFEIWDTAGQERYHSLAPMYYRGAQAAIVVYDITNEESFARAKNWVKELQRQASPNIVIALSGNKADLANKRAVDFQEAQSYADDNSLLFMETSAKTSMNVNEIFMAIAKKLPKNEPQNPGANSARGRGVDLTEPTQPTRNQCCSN"}, "[3]": {"molecular_target": "the other GTPases tested"}, "[4]": {"molecular_target": "ARF3, purified from E. coli, preloaded with BODIPY FL GDP, P61204", "sequence (P61204 whole entry)": "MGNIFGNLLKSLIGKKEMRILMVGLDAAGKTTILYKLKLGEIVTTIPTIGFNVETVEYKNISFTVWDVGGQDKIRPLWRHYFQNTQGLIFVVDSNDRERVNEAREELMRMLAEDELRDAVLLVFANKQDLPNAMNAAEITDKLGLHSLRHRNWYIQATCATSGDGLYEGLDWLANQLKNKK"}}, "data": [{"protein": "DENND2D, 2x HA-tagged, in HEK cell lysate (protein) MEGQVVGRVFRLFQRRLLQLRAGPPQDNSGEALKEPERAQEHSLPNFAGGQHFFEYLLVVSLKKKRSEDDYEPIITYQFPKRENLLRGQQEEEERLLKAIPLFCFPDGNEWASLTEYPRETFSFVLTNVDGSRKIGYCRRLLPAGPGPRLPKVYCIISCIGCFGLFSKILDEVEKRHQISMAVIYPFMQGLREAAFPAPGKTVTLKSFIPDSGTEFISLTRPLDSHLEHVDFSSLLHCLSFEQILQIFASAVLERKIIFLAEGLSTLSQCIHAAAALLYPFSWAHTYIPVVPESLLATVCCPTPFMVGVQMRFQQEVMDSPMEEVLLVNLCEGTFLMSVGDEKDILPPKLQDDILDSLGQGINELKTAEQINEHVSGPFVQFFVKIVGHYASYIKREANGQGHFQERSFCKALTSKTNRRFVKKFVKTQLFSLFIQEAEKSKNPPAGYFQQKILEYEEQKKQKKPREKTVK", "values": [{"measurement": "guanine exchange activity (BODIPY-GDP fluorescence)", "setting": "[1]", "result": "neither RABEX-5, DENN2D, or DsRed displayed activity on RAB11A"}, {"measurement": "guanine exchange activity (BODIPY-GDP fluorescence)", "setting": "[2]", "result": "did not display guanine exchange activity on RAB5A"}]}, {"protein": "RABEX5, 2x HA-tagged, in HEK cell lysate (protein) MSLKSERRGIHVDQSDLLCKKGCGYYGNPAWQGFCSKCWREEYHKARQKQIQEDWELAERLQREEEEAFASSQSSQGAQSLTFSKFEEKKTNEKTRKVTTVKKFFSASSRVGSKKEIQEAKAPSPSINRQTSIETDRVSKEFIEFLKTFHKTGQEIYKQTKLFLEGMHYKRDLSIEEQSECAQDFYHNVAERMQTRGKVPPERVEKIMDQIEKYIMTRLYKYVFCPETTDDEKKDLAIQKRIRALRWVTPQMLCVPVNEDIPEVSDMVVKAITDIIEMDSKRVPRDKLACITKCSKHIFNAIKITKNEPASADDFLPTLIYIVLKGNPPRLQSNIQYITRFCNPSRLMTGEDGYYFTNLCCAVAFIEKLDAQSLNLSQEDFDRYMSGQTSPRKQEAESWSPDACLGVKQMYKNLDLLSQLNERQERIMNEAKKLEKDLIDWTDGIAREVQDIVEKYPLEIKPPNQPLAAIDSENVENDKLPPPLQPQVYAG", "values": [{"measurement": "guanine exchange activity (BODIPY-GDP fluorescence)", "setting": "[1]", "result": "neither RABEX-5, DENN2D, or DsRed displayed activity on RAB11A"}]}, {"protein": "C9ORF72 isoform B, 2x HA-tagged, in HEK cell lysate (protein) MSTLCPPPSPAVAKTEIALSGKSPLLAATFAYWDNILGPRVRHIWAPKTEQVLLSDGEITFLANHTLNGEILRNAESGAIDVKFFVLSEKGVIIVSLIFDGNWNGDRSTYGLSIILPQTELSFYLPLHRVCVDRLTHIIRKGRIWMHKERQENVQKIILEGTERMEDQGQSIIPMLTGEVIPVMELLSSMKSHSVPEEIDIADTVLNDDDIGDSCHEGFLLK", "values": [{"measurement": "guanine exchange activity (BODIPY-GDP fluorescence)", "setting": "[3]", "result": "Significant activity was not observed using both C9ORF72 isoforms on the other GTPases tested"}, {"measurement": "guanine exchange activity (BODIPY-GDP fluorescence)", "setting": "[4]", "result": "C9ORF72 isoforms A and B stimulated guanine exchange on ARF3"}]}]}
